Measured values: patent US20220289828A1

How the values were obtained:
[1] = molecular target: Enterovirus D68 US/MO/14-18947 virus particle (B1 clade) (Enterovirus D68); test: cryo-EM structure
[2] = molecular target: Enterovirus D68 US/MO/14-18947 virus particle (B1 clade) (Enterovirus D68); test: cryo-EM of Fab with B1 clade virus
[3] = molecular target: B1 clade EV-D68 isolate (Enterovirus D68); test: cell-based or functional assay

Row | Binder | share of the masked surface area from the heavy chain [1] | viral surface area masked by each Fab [1] | copies of Fab bound to the virus particle [2] | IC50 in a CCID50 neutralization assay [3]
1 | Fab EV68-228 (Fab, V domains shown) VH: QVQLQESGPGLVKPSETLSLTCTVSGYLISNGYYWGWIRQSPGKGLEWIGSIYYTRDTYYNWSLKSRITISVDTSKKQFSLKLYSVTAADTAVYYCVRHEGSCNDGSCYGSFVDNWGQGTLVTVSS VL: DIQMTQSPSSVSASVGDRVTLTCRASQDISSWLAWYQQKPGKAPKLLIYAASSLQSGVPSRFSGSGSGTHFTLTISSLQPEDFATYFCQQADSFITFGGGTKVEIK | 84% | 1170 Å^2 | 60 copies | 
2 | mAb EV68-159 (antibody, V domains shown) VH: EVQLVESGGGLVKPGGSLRLSCAASGFTFSTYIMTWVRQAPGRGLEWVSSISTSSVYTFYADSLKGRFTISRDNAKNSVYLQMNSLRADDTAVYYCAREEGFRAYNLYWGQGTLVTVSS VL: QSVLTQPPSASGTPGQRVTISCSGSSSNIEYNYVYWYQKFPGTAPKLLIYKNNQRPSGVPDRFSGSKSGTSASLAISGLRSEDEGDYYCAAWDDILSGVVFGGGTKLTVL |  |  |  | 0.32 ng/mL
3 | Fab EV68-159 (Fab, V domains shown) VH: EVQLVESGGGLVKPGGSLRLSCAASGFTFSTYIMTWVRQAPGRGLEWVSSISTSSVYTFYADSLKGRFTISRDNAKNSVYLQMNSLRADDTAVYYCAREEGFRAYNLYWGQGTLVTVSS VL: QSVLTQPPSASGTPGQRVTISCSGSSSNIEYNYVYWYQKFPGTAPKLLIYKNNQRPSGVPDRFSGSKSGTSASLAISGLRSEDEGDYYCAAWDDILSGVVFGGGTKLTVL | 77% | 990 Å^2 | 60 copies | 
